In patent EP4810058A1 (Shanghai Henlius Biotech, Inc., dated 2026):

Assays:
[1] = biological target: T1, HER2 on gastric cancer cells NCI-N87 and SNU216 (human, UniProt P04626 23-1255); test: HER2 internalization assay on NCI-N87 and SNU216 cells, pHrodo dye, flow cytometry
T1 construct: whole, on cells; also called CD340; erbB2

HER2-Fc protein = biological target: T2, HER2-Fc protein (human, UniProt P04626 23-652); test: SPR (Biacore CM5), antibody immobilized by amine coupling, HER2-Fc injected
T2 construct: Bought reagent (Sino Biological, PA, USA, Cat. No. 10004-H02H, LC10JA1203); not shown: Fc part of the bought fusion

binding result [1]: binds
binding result (HER2-Fc protein): binds
B1: Second anti-HER2 antibody (antibody, human IgG1, kappa, V domains shown)
VH: EVQLVESGGGLVQPGGSLRLSCAASGFTFSSYTMSWVRQAPGKGLEWVAYISAGGGSTYYPDTVKGRFTISRDNAKNSLYLQMNSLRAEDTAVYYCARHLGGTASFDYWGQGTLVTVSS
VL: DIQMTQSPSSLSASVGDRVTITCLASQTIGTWLAWYQQKPGKAPKLLIYVATSLADGVPSRFSGSGSGTDFTLTISSLQPEDFATYYCQQNAYAPWTFGQGTKVEIKR
notes: also called second antibody; hz1E11-133
